T1: Kap95p (S. cerevisiae, UniProt Q06142 1-861)
T1 construct: Kap95p, S. cerevisiae, full length; The purification paragraph is headed for Kap114p proteins; that Kap95p was treated alike is surmised; source: E. coli, GST-tagged construct in modified pGEX6p1; purification told for the GST-tagged proteins; not shown: GST, N-terminal, cleaved
T1 sequence (looked up): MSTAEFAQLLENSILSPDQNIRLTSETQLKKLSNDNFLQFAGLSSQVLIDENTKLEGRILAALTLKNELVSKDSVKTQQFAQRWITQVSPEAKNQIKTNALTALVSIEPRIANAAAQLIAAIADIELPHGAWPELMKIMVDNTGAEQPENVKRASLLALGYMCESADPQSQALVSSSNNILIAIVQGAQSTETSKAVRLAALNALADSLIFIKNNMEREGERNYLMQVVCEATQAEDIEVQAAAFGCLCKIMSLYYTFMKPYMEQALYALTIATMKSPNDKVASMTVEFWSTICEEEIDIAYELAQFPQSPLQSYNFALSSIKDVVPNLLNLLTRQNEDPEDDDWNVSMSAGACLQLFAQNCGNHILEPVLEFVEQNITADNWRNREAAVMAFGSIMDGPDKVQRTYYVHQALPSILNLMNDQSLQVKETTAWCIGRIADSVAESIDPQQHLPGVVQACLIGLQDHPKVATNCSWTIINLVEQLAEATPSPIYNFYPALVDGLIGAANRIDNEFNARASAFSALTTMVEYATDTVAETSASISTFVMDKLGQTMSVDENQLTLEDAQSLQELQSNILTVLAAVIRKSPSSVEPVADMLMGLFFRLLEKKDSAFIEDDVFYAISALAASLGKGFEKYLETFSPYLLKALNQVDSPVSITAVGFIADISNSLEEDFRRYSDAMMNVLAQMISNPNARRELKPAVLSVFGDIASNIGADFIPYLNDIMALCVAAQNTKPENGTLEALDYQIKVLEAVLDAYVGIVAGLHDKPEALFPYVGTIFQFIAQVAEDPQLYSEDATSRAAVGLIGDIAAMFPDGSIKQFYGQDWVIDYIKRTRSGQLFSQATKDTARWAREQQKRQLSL

T2: Kap114pΔ(932-941) (S. cerevisiae, UniProt P53067 1-1004, Δ(932-941))
T2 construct: Kap114p, S. cerevisiae, full length with residues 932-941 deleted; also called Kap114p deletion mutant lacking the α-helix of the HEAT19 loop (a.a. 932-941); source: E. coli Rosetta, purified (GST resin, MonoQ, Superdex 200); not shown: GST, N-terminal, cleaved
T2 sequence (looked up): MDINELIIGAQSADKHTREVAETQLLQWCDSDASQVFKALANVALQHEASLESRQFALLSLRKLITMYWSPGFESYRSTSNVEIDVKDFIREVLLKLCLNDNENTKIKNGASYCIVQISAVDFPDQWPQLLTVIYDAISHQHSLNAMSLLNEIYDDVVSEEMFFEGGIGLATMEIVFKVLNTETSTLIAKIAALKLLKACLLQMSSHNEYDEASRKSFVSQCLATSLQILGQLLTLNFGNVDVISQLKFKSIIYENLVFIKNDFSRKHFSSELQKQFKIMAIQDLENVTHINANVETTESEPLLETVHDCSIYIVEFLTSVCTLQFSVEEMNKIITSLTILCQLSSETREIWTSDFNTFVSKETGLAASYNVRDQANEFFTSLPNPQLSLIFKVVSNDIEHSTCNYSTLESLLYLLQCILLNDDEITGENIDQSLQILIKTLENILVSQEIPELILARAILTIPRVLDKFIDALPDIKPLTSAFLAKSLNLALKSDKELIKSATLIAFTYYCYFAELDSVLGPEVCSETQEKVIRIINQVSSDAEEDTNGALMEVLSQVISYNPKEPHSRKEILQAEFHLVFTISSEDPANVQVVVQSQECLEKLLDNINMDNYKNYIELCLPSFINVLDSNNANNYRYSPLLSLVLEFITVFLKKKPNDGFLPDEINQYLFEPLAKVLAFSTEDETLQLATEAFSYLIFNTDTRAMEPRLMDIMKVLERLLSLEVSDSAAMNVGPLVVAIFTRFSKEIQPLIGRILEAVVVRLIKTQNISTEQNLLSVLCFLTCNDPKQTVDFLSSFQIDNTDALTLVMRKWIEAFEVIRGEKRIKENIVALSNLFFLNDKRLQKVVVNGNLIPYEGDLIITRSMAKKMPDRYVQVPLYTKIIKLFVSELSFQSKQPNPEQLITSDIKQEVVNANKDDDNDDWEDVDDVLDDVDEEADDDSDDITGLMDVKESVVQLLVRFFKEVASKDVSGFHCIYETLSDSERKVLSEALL

T3: Kap114p (wild type) (S. cerevisiae, UniProt P53067 1-1004)
T3 construct: Kap114p, S. cerevisiae, full length, amplified from total genomic DNA; GST tag removed with PreScission protease; also called karyopherin-β Kap114p; source: E. coli Rosetta, purified (GST resin, MonoQ, Superdex 200); not shown: GST, N-terminal, cleaved
T3 sequence (looked up): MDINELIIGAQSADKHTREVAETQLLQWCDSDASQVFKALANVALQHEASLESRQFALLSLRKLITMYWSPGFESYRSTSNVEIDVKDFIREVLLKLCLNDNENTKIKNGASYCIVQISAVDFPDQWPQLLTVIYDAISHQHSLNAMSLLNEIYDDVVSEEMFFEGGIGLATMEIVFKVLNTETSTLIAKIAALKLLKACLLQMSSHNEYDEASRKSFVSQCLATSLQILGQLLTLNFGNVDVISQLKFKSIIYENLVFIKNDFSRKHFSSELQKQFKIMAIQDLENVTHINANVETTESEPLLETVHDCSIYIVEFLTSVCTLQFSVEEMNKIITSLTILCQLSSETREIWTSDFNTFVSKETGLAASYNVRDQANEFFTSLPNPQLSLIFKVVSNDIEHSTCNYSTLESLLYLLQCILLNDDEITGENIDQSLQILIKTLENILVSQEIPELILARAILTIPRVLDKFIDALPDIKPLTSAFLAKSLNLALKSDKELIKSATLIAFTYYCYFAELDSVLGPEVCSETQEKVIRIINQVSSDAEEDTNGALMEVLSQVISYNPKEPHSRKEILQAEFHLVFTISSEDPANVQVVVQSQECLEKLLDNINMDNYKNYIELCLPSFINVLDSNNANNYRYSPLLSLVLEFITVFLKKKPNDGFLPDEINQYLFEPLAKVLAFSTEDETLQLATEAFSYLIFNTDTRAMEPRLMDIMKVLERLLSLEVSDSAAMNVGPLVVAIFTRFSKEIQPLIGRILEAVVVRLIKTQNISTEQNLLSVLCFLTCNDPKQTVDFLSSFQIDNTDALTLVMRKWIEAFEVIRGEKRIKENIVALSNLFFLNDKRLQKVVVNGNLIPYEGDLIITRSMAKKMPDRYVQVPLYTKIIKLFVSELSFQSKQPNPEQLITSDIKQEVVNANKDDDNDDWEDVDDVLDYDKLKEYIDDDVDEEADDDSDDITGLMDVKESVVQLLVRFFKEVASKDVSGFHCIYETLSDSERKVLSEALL

T4: Kap114p(Y370A) (S. cerevisiae, UniProt P53067 1-1004, Y370A)
T4 construct: Kap114p, S. cerevisiae, full length, point mutant Y370A; source: E. coli Rosetta, purified (GST resin, MonoQ, Superdex 200); not shown: GST, N-terminal, cleaved
T4 sequence (looked up): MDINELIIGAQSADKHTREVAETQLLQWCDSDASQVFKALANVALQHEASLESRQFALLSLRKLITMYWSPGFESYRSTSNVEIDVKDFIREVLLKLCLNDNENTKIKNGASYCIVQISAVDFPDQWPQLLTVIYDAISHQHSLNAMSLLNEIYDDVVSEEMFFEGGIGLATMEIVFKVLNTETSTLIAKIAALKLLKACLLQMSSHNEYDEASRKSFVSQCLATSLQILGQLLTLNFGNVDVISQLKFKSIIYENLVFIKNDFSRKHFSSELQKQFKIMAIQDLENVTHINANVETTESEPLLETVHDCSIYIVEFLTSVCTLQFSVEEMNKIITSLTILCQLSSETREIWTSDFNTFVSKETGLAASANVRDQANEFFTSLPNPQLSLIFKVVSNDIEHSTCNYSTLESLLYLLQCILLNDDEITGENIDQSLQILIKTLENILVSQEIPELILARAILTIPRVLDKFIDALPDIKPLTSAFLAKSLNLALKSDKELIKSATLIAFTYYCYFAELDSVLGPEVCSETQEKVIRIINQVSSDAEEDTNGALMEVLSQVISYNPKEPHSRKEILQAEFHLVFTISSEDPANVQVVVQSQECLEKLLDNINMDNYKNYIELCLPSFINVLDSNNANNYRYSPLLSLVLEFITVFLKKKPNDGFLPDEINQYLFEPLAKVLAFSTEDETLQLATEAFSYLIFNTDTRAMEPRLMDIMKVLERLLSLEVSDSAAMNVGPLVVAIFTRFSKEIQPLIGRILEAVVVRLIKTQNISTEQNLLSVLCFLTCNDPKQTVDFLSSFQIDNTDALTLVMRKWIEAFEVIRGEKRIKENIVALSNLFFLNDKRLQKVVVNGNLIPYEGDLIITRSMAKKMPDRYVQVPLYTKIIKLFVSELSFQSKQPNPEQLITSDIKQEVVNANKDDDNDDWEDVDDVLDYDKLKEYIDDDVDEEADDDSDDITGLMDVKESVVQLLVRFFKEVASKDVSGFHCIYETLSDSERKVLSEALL


How the values were obtained:
Settings in all cases: both partners purified
Kap95p = target: T1, Kap95p; assay: ITC; Kap95p with wild type or R141A yTBP^C; which protein was in the cell is not told for Kap95p; n = 3
Kap114pΔ(932-941) = target: T2, Kap114pΔ(932-941); assay: ITC; MicroCal iTC200, 25 °C, 20 mM HEPES pH 7.4, 150 mM NaCl; 25 or 50 μM wild type or mutant Kap114p in the cell, 250 or 500 μM wild-type or mutant yTBP^C in the syringe; triplicate
Kap114p (wild type) [1] = target: T3, Kap114p (wild type); assay: as above
Kap114p (wild type) [2] = target: T3, Kap114p (wild type); assay: cryo-EM structure; components purified from E. coli, mixed at an equal molar ratio, cross-linked with 0.01% glutaraldehyde, purified by SEC; Titan Krios 300 keV
Kap114p(Y370A) = target: T4, Kap114p(Y370A); assay: ITC; MicroCal iTC200, 25 °C, 20 mM HEPES pH 7.4, 150 mM NaCl; 25 or 50 μM wild type or mutant Kap114p in the cell, 250 or 500 μM wild-type or mutant yTBP^C in the syringe; triplicate

| Kd (Kap95p) | Kd (Kap114pΔ(932-941)) | Kd (Kap114p (wild type) [1]) | stoichiometry N (Kap114p (wild type) [2]) | Kd (Kap114p(Y370A)) | Binder |
| --- | --- | --- | --- | --- | --- |
| ~8.1 µM | ~0.158 µM | ~0.001 µM | 1 |  | core domain of yeast TATA-box binding protein (yTBP^C), wild type (domain or fragment, S. cerevisiae, UniProt P13393 61-240, looked up, 61-240; His tag removed with PreScission protease; also called yTBP core domain; source: E. coli Rosetta, purified (Ni-NTA, HiTrap SP, Superdex 75); not shown: His6, N-terminal, cleaved) SGIVPTLQNIVATVTLGCRLDLKTVALHARNAEYNPKRFAAVIMRIREPKTTALIFASGKMVVTGAKSEDDSKLASRKYARIIQKIGFAAKFTDFKIQNIVGSCDVKFPIRLEGLAFSHGTFSSYEPELFPGLIYRMVKPKIVLLIFVSGKIVLTGAKQREEIYQAFEAIYPVLSEFRKM |
|  |  |  |  | ~1.5 µM | yTBP^C (N91A) (domain or fragment, S. cerevisiae, UniProt P13393 61-240, looked up, 61-240, point mutant N91A; also called yTBP(N91A); source: E. coli Rosetta, purified (Ni-NTA, HiTrap SP, Superdex 75); not shown: His6, N-terminal, cleaved) SGIVPTLQNIVATVTLGCRLDLKTVALHARAAEYNPKRFAAVIMRIREPKTTALIFASGKMVVTGAKSEDDSKLASRKYARIIQKIGFAAKFTDFKIQNIVGSCDVKFPIRLEGLAFSHGTFSSYEPELFPGLIYRMVKPKIVLLIFVSGKIVLTGAKQREEIYQAFEAIYPVLSEFRKM |

— paper PMC10491584, “Structural convergence endows nuclear transport receptor Kap114p with a transcriptional repressor function toward TATA-binding protein” (Nature Communications, 2023)
